# In paper PMC6326545:
# Target: rat TRPV1 ion channel (rat) (UniProt O35433)
# Chain of UniProt O35433 (O35433 whole entry): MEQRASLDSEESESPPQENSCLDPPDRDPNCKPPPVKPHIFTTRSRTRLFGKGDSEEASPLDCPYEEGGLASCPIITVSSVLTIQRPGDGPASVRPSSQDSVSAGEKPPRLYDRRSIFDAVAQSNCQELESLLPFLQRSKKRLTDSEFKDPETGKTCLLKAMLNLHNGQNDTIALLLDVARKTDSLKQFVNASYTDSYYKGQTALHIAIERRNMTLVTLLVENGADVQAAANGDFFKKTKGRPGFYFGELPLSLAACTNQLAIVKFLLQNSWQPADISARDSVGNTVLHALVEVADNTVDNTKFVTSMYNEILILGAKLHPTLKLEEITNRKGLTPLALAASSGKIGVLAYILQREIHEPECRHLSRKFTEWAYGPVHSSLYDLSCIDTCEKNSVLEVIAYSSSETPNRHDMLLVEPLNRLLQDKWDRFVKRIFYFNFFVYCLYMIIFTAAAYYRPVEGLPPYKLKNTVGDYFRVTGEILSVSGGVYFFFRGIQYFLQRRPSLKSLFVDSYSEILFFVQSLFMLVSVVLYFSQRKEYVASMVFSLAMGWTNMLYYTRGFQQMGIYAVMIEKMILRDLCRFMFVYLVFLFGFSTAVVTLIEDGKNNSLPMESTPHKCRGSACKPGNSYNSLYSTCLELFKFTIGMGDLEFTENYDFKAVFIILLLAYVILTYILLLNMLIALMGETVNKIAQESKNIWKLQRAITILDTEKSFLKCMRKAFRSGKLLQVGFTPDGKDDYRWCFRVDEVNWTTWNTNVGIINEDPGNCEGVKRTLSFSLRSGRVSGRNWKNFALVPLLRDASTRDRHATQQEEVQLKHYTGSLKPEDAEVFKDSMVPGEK
row,Substance,"EC50 of TRPV1 activation (two-electrode voltage clamp, oocytes), fold over wild-type DkTx (fold over wild-type DkTx)"
1,DkTx E7A (natural protein),11
2,DkTx V8A (natural protein),16
